Experimental data reported in the supplement of paper PMC10724198.
± gives the standard deviation of the averaged measurements.

System: Saccharomyces cerevisiae
Experiment: protein stability index of tFT-peptide fusion (C-terminal peptide) (PSI (0-1 scale)); higher = more stable (slower turnover)
Conditions: temperature: 30 C
Protocol: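 MPS profiling in S. cerevisiae of the yeast C-terminome library: the last 12 aa of each annotated ORF are fused to the C-terminus of a sfGFP-mCherry timer, after a GGGS linker. Cells are FACS-sorted into 8 mCherry/sfGFP bins and deep-sequenced. PSI runs from 0 (unstable) to 1 (stable); wild type and das1Δ backgrounds, two technical replicates each.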

[1] = genetic background: das1 deletion

| Sequence | protein stability index [1] | protein stability index (genetic background: wild type) |
| --- | --- | --- |
| AAIPVILAKIKV [SHE4 C-terminal 12 aa] | 0.502 ± 0.019 | 0.56 ± 0.13 |
| DISVQQVKIASK [SPF1 C-terminal 12 aa] | 0.682 ± 0.018 | 0.6857 ± 0.0041 |
| GGNLPQGYFYTQ [GTS1 C-terminal 12 aa] | 0.707 ± 0.0075 | 0.69615 ± 0.00011 |
| IGRENENENEDD [POP5 C-terminal 12 aa] | 0.688 ± 0.037 | 0.704 ± 0.058 |
| VPGGKKTPTEAL [LSM5 C-terminal 12 aa] | 0.6817 ± 0.0014 | 0.707 ± 0.026 |
| KFAKANIGYVMG [RPN4 C-terminal 12 aa] | 0.4528 ± 0.0025 | 0.495 ± 0.011 |
| GLKGLFPTSYCK [BZZ1 C-terminal 12 aa] | 0.702 ± 0.039 | 0.732 ± 0.02 |
| LDKIKTDDTYTS [FYV7 C-terminal 12 aa] | 0.7 ± 0.024 | 0.6966 ± 0.0045 |
| QFAQDTLKNFVQ [SAM35 C-terminal 12 aa] | 0.733 ± 0.022 | 0.713 ± 0.03 |
| STTTVIQGEINK [LRG1 C-terminal 12 aa] | 0.671 ± 0.049 | 0.713 ± 0.036 |
| ININDLMVNRNH [YOR389W C-terminal 12 aa] | 0.7014 ± 0.0018 | 0.7003 ± 0.0012 |
| SAQRDRRYRKRV [RPS17A C-terminal 12 aa] | 0.6665 ± 0.0025 | 0.69 ± 0.067 |
| IKLARRLRGERS [YBR010W; YNL031C C-terminal 12 aa] | 0.6941 ± 0.0047 | 0.68 ± 0.012 |
| EKLAALVENAEV [PUF3 C-terminal 12 aa] | 0.68 ± 0.0089 | 0.679 ± 0.04 |
| GALLAGAAALLL [CCW12 C-terminal 12 aa] | 0.7007 ± 0.0036 | 0.698 ± 0.019 |
| KYCRVPLPENNR [YEL008C-A C-terminal 12 aa] | 0.709 ± 0.015 | 0.677 ± 0.068 |
| RLIFYPDEYEQL [PRE3 C-terminal 12 aa] | 0.743 ± 0.012 | 0.736 ± 0.071 |

| Sequence | protein stability index [1] | protein stability index (genetic background: wild type) |
| --- | --- | --- |
| KRRNWRRTKMNI [RPL39 C-terminal 12 aa] | 0.682 ± 0.017 | 0.705 ± 0.04 |
| QLISTPIKDNEH [KIC1 C-terminal 12 aa] | 0.693 ± 0.018 | 0.682 ± 0.031 |
| VSNASNGCVLDA [ILV3 C-terminal 12 aa] | 0.70459 ± 3.7e-05 | 0.707 ± 0.013 |
| SQNELRFEERLL [INO1 C-terminal 12 aa] | 0.683 ± 0.021 | 0.675 ± 0.025 |
| VSDSSYDEYSNE [SYT1 C-terminal 12 aa] | 0.679 ± 0.021 | 0.672 ± 0.03 |
| GVITPVYFPLRW [YDR215C C-terminal 12 aa] | 0.725 ± 0.008 | 0.715 ± 0.017 |
| FSRASCITVWLV [YPR160C-A C-terminal 12 aa] | 0.6275 ± 0.0035 | 0.228 ± 0.027 |
| SVLKRVRKLFGE [VMA7 C-terminal 12 aa] | 0.712 ± 0.004 | 0.684 ± 0.02 |
| MEALKEAREILG [MSH1 C-terminal 12 aa] | 0.7025 ± 0.0022 | 0.628 ± 0.019 |
| QTSGTFLHFSRP [YEL075W-A C-terminal 12 aa] | 0.712 ± 0.01 | 0.718 ± 0.062 |
| ELNEEKRRSALP [SAK1 C-terminal 12 aa] | 0.687 ± 0.023 | 0.686 ± 0.016 |
| SFKAYVGLPTTG [PIC2 C-terminal 12 aa] | 0.706 ± 0.01 | 0.693 ± 0.009 |
| DEVTYLMFSSIM [SPG1 C-terminal 12 aa] | 0.713 ± 0.011 | 0.658 ± 0.026 |
| YKERDLIDRSAY [VTS1 C-terminal 12 aa] | 0.681 ± 0.014 | 0.706 ± 0.032 |
| VKFGLQMAYLQS [YMR007W C-terminal 12 aa] | 0.7023 ± 0.005 | 0.6586 ± 0.0059 |
| IYSVIQCLFLHS [YMR141W-A C-terminal 12 aa] | 0.64018 ± 0.00059 | 0.607 ± 0.018 |
